Assay results as given in patent US20200317768A1 (published 2020).

T1: cynomolgus monkey FcγRIIa1 extracellular domain, His-tagged (cynomolgus monkey)
T1 construct: also called cyno FcγRIIa1; cynoFcgRIIa1; not shown: C-terminal His-tag
T1 chain: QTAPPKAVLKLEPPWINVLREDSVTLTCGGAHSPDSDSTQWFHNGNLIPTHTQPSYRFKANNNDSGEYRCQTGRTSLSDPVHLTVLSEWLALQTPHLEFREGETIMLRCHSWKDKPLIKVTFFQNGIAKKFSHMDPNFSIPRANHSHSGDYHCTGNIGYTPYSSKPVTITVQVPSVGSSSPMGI

T2: cynomolgus monkey FcγRIIa2 extracellular domain, His-tagged (cynomolgus monkey)
T2 construct: also called cyno FcγRIIa2; cynoFcgRIIa2; not shown: C-terminal His-tag
T2 chain: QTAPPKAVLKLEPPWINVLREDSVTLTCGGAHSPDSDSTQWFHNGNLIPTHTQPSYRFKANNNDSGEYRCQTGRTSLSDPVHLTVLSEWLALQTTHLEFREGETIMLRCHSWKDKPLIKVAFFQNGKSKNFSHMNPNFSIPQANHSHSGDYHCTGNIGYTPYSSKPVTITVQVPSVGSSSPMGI

T3: cynomolgus monkey FcγRIIb extracellular domain, His-tagged (cynomolgus monkey)
T3 construct: also called cyno FcγRIIb; cynoFcγRIIb; not shown: C-terminal His-tag
T3 chain: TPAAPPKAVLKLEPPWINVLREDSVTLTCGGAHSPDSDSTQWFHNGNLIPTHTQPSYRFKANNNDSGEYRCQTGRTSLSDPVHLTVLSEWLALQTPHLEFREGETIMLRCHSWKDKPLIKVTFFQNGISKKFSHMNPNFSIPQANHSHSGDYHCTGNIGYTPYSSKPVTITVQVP

T4: cynomolgus monkey FcγRIIIaS extracellular domain, His-tagged (cynomolgus monkey, UniProt Q8SPW2 21-206 at identity 1.00))
T4 construct: also called cyno FcγRIIIaS; cynoFcγRIIIaS; not shown: C-terminal His-tag
T4 chain: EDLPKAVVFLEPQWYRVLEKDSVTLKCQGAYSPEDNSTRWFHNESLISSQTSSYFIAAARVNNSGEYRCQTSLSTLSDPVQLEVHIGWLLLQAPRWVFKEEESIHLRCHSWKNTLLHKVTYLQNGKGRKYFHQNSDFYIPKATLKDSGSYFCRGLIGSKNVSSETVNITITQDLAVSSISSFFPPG

T5: human FcγRIIaH extracellular domain, His-tagged (human, UniProt P12318 34-217)
T5 construct: also called human FcγRIIa (type H); FcgRIIaH; not shown: C-terminal His-tag
T5 sequence: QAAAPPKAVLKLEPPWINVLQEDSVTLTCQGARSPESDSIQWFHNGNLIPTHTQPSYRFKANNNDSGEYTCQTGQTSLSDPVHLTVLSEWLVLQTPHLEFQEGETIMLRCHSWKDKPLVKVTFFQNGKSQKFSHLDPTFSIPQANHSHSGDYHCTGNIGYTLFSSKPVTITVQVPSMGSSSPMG

T6: human FcγRIIaR extracellular domain, His-tagged (human, UniProt P12318 34-217)
T6 construct: also called human FcγRIIa (type R); FcgRIIaR; not shown: C-terminal His-tag
T6 chain: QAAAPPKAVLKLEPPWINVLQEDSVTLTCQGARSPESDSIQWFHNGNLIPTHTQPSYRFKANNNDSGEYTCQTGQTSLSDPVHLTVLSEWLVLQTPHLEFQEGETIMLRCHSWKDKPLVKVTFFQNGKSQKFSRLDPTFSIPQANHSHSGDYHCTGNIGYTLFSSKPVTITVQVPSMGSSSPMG

T7: human FcγRIIb extracellular domain, His-tagged (human, UniProt P31994 43-217)
T7 construct: also called FcgRIIb (human); not shown: C-terminal His-tag
T7 sequence: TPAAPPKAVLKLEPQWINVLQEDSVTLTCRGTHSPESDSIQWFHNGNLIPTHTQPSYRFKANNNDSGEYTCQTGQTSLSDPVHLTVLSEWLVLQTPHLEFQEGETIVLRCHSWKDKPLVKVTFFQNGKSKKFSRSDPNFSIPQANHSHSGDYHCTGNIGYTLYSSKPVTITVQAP


Assays:
[1] = molecular target: T1, cynomolgus monkey FcγRIIa1 …; assay: SPR (BIACORE), captured antibody, FcgR as analyte
[2] = molecular target: T2, cynomolgus monkey FcγRIIa2 …; assay: SPR (BIACORE), captured antibody, FcgR as analyte
[3] = molecular target: T3, cynomolgus monkey FcγRIIb extracellular …; assay: SPR (BIACORE), captured antibody, FcgR as analyte
[4] = molecular target: T4, cynomolgus monkey FcγRIIIaS …; assay: SPR (BIACORE), captured antibody, FcgR as analyte
[5] = molecular target: T5, human FcγRIIaH extracellular domain, …; assay: SPR (BIACORE), captured antibody, FcgR as analyte
[6] = molecular target: T6, human FcγRIIaR extracellular domain, …; assay: SPR (BIACORE), captured antibody, FcgR as analyte
[7] = molecular target: T7, human FcγRIIb extracellular domain, …; assay: SPR (BIACORE), captured antibody, FcgR as analyte
[8] = molecular target: T8, human FcγRIIIaV extracellular domain, His-tagged (human, UniProt P08637 17-208); assay: SPR (BIACORE), captured antibody, FcgR as analyte
T8 construct: also called FcgRIIIaV; not shown: C-terminal His-tag

[9] = molecular target: T5, human FcγRIIaH extracellular domain, …; assay: SPR (BIACORE); KD of SG1 divided by KD of variant;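 note: relative to parent M103205H795-SG1 carrying the SG1 human heavy chain constant region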
[10] = molecular target: T7, human FcγRIIb extracellular domain, …; assay: SPR (BIACORE); KD of SG1 divided by KD of variant;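 note: relative to parent M103205H795-SG1 carrying the SG1 human heavy chain constant region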

T8 sequence (P08637 17-208 F176V): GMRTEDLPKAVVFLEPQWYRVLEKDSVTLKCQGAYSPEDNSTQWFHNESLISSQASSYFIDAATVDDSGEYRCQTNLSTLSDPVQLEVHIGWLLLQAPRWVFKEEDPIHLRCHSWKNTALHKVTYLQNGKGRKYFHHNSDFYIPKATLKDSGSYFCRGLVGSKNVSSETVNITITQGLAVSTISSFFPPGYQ

Binder	Kd [1]	Kd [2]	Kd [3]	Kd [4]	Kd [5]	Kd [6]	Kd [7]	Kd [8]	KD fold (SG1 = 1) [9]	KD fold (SG1 = 1) [10]
M103205H795-MY444/M103202L889-SK1 (antibody, human IgG1, kappa, copies: 2 + 2) heavy: QVTLKESGPVLVKPTETLTLTCTVSGIDLSHDDISWVRQAPGKGLEWVGIISYAGSTYYASWAKGRLTISKDTSKNQVVLTMTNMDPVDTATYYCARGVPAYSHGGDLWGQGTLVTVSSASTKGPSVFPLAPSSKSTSGGTAALGCLVKDYFPEPVTVSWNSGALTSGVHTFPAVLQSSGLYSLSSVVTVPSSSLGTQTYICNVNHKPSNTKVDKKVEPKSCDKTHTCPPCPAFELLTGPSVFLFPPKPKDTLMISRTPEVTCVVVDVSDEDPEVKFNWYVDGVEVHNAKTKPREEQYNSTYRVVSVLTVLHQDWLNGKEYKCKVSNKALPKPIEKTISKAKGQPREPQVYTLPPSREEMTKNQVSLTCLVKGFYPSDIAVEWESNGQPENNYKTTPPVLDSDGSFFLYSKLTVDKSRWQQGNVFSCSVMHEALHNHYTQKSLSLSP light: DIVMTQSPATLSLSPGERATLSCTSSQSVYHANWLSWFQQKPGQPPKLLIYWASTLAYGVPSRFSGSGSGTDFTLTISSLQPEDAATYYCAGGYGGGRYAFGQGTKVEIKRTVAAPSVFIFPPSDEQLKSGTASVVCLLNNFYPREAKVQWKVDNALQSGNSQESVTEQDSKDSTYSLSSTLTLSKADYEKHKVYACEVTHQGLSSPVTKSFNRGEC	1.2 µM	1.1 µM	0.3 µM	1.6 µM	0.11 µM	0.14 µM	0.74 µM	5.2 µM	6.3 fold	6.2 fold
M103205H795-MY447/M103202L889-SK1 (antibody, human IgG1, kappa, copies: 2 + 2) heavy: QVTLKESGPVLVKPTETLTLTCTVSGIDLSHDDISWVRQAPGKGLEWVGIISYAGSTYYASWAKGRLTISKDTSKNQVVLTMTNMDPVDTATYYCARGVPAYSHGGDLWGQGTLVTVSSASTKGPSVFPLAPSSKSTSGGTAALGCLVKDYFPEPVTVSWNSGALTSGVHTFPAVLQSSGLYSLSSVVTVPSSSLGTQTYICNVNHKPSNTKVDKKVEPKSCDKTHTCPPCPAIELLTGPSVFLFPPKPKDTLMISRTPEVTCVVVDVSDEDPEVKFNWYVDGVEVHNAKTKPREEQYNSTYRVVSVLTVLHQDWLNGKEYKCKVSNKALPKPIEKTISKAKGQPREPQVYTLPPSREEMTKNQVSLTCLVKGFYPSDIAVEWESNGQPENNYKTTPPVLDSDGSFFLYSKLTVDKSRWQQGNVFSCSVMHEALHNHYTQKSLSLSP light: DIVMTQSPATLSLSPGERATLSCTSSQSVYHANWLSWFQQKPGQPPKLLIYWASTLAYGVPSRFSGSGSGTDFTLTISSLQPEDAATYYCAGGYGGGRYAFGQGTKVEIKRTVAAPSVFIFPPSDEQLKSGTASVVCLLNNFYPREAKVQWKVDNALQSGNSQESVTEQDSKDSTYSLSSTLTLSKADYEKHKVYACEVTHQGLSSPVTKSFNRGEC	0.99 µM	0.88 µM	0.23 µM	1.1 µM	0.097 µM	0.098 µM	0.44 µM	4 µM	7.1 fold	10.5 fold
M103205H795-MY446/M103202L889-SK1 (antibody, human IgG1, kappa, copies: 2 + 2) heavy: QVTLKESGPVLVKPTETLTLTCTVSGIDLSHDDISWVRQAPGKGLEWVGIISYAGSTYYASWAKGRLTISKDTSKNQVVLTMTNMDPVDTATYYCARGVPAYSHGGDLWGQGTLVTVSSASTKGPSVFPLAPSSKSTSGGTAALGCLVKDYFPEPVTVSWNSGALTSGVHTFPAVLQSSGLYSLSSVVTVPSSSLGTQTYICNVNHKPSNTKVDKKVEPKSCDKTHTCPPCPAHELLTGPSVFLFPPKPKDTLMISRTPEVTCVVVDVSDEDPEVKFNWYVDGVEVHNAKTKPREEQYNSTYRVVSVLTVLHQDWLNGKEYKCKVSNKALPKPIEKTISKAKGQPREPQVYTLPPSREEMTKNQVSLTCLVKGFYPSDIAVEWESNGQPENNYKTTPPVLDSDGSFFLYSKLTVDKSRWQQGNVFSCSVMHEALHNHYTQKSLSLSP light: DIVMTQSPATLSLSPGERATLSCTSSQSVYHANWLSWFQQKPGQPPKLLIYWASTLAYGVPSRFSGSGSGTDFTLTISSLQPEDAATYYCAGGYGGGRYAFGQGTKVEIKRTVAAPSVFIFPPSDEQLKSGTASVVCLLNNFYPREAKVQWKVDNALQSGNSQESVTEQDSKDSTYSLSSTLTLSKADYEKHKVYACEVTHQGLSSPVTKSFNRGEC	2.5 µM	2.2 µM	0.63 µM	2.9 µM	0.26 µM	0.48 µM	2.4 µM	7.1 µM	2.7 fold	1.9 fold
M103205H795-MY445/M103202L889-SK1 (antibody, human IgG1, kappa, copies: 2 + 2) heavy: QVTLKESGPVLVKPTETLTLTCTVSGIDLSHDDISWVRQAPGKGLEWVGIISYAGSTYYASWAKGRLTISKDTSKNQVVLTMTNMDPVDTATYYCARGVPAYSHGGDLWGQGTLVTVSSASTKGPSVFPLAPSSKSTSGGTAALGCLVKDYFPEPVTVSWNSGALTSGVHTFPAVLQSSGLYSLSSVVTVPSSSLGTQTYICNVNHKPSNTKVDKKVEPKSCDKTHTCPPCPAGELLTGPSVFLFPPKPKDTLMISRTPEVTCVVVDVSDEDPEVKFNWYVDGVEVHNAKTKPREEQYNSTYRVVSVLTVLHQDWLNGKEYKCKVSNKALPKPIEKTISKAKGQPREPQVYTLPPSREEMTKNQVSLTCLVKGFYPSDIAVEWESNGQPENNYKTTPPVLDSDGSFFLYSKLTVDKSRWQQGNVFSCSVMHEALHNHYTQKSLSLSP light: DIVMTQSPATLSLSPGERATLSCTSSQSVYHANWLSWFQQKPGQPPKLLIYWASTLAYGVPSRFSGSGSGTDFTLTISSLQPEDAATYYCAGGYGGGRYAFGQGTKVEIKRTVAAPSVFIFPPSDEQLKSGTASVVCLLNNFYPREAKVQWKVDNALQSGNSQESVTEQDSKDSTYSLSSTLTLSKADYEKHKVYACEVTHQGLSSPVTKSFNRGEC	5.6 µM	5.5 µM	1.4 µM	3.5 µM	0.56 µM	1.2 µM	4.2 µM	9.5 µM	1.2 fold	1.1 fold
